Earlier results as cited in publication doi:10.1101/2025.09.11.675682.

Assays:
Assay in all cases: ITC
Conditions in all cases: cited from earlier work
[1] = target: SLP-76 157-420 (Homo sapiens) (UniProt Q13094)
LAT (Homo sapiens) = LAT (Homo sapiens) (UniProt O43561)
[2] = target: LAT 125-178 (Homo sapiens) (UniProt O43561)
[3] = target: SLP-76 159-533 (Homo sapiens) (UniProt Q13094)
[4] = target: LAT 161-180 (Homo sapiens) (UniProt O43561)
[5] = target: LAT 122-140 (Homo sapiens) (UniProt O43561)

Sequence of Gads 1-322 (from UniProt O89100) (O89100 whole entry): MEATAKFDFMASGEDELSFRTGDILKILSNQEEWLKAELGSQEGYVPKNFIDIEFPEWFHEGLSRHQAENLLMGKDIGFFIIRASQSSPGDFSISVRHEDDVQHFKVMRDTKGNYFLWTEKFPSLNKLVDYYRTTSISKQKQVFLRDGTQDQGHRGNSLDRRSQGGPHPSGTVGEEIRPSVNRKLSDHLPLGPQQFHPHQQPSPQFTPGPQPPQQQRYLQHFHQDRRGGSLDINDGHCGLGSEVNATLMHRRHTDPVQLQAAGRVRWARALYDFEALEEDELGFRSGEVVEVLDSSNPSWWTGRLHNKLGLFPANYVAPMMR
Sequence of SLP-76 157-420 (Homo sapiens) (Q13094 157-420): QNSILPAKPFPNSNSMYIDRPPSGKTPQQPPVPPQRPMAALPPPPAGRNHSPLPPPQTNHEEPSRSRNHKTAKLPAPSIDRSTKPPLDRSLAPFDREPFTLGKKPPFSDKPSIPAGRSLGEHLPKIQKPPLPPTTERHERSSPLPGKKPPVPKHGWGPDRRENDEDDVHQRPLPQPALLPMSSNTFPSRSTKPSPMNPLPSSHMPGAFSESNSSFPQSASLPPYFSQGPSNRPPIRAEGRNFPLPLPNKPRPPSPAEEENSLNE
Sequence of LAT 125-178 (Homo sapiens) (O43561 125-178): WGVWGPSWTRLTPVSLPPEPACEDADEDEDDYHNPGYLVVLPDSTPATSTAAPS
Sequence of Gads 1-322 (from UniProt O75791) (O75791 1-322): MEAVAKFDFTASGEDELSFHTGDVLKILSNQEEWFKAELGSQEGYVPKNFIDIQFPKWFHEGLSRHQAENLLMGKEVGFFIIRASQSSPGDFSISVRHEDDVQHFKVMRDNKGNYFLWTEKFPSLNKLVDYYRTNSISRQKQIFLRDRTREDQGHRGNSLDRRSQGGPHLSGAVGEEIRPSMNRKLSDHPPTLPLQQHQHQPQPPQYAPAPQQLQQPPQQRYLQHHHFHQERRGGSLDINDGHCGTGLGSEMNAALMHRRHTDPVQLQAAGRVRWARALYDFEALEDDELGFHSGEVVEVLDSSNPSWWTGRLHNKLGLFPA
Sequence of PLC-γ1 550-846 (P19174 550-846): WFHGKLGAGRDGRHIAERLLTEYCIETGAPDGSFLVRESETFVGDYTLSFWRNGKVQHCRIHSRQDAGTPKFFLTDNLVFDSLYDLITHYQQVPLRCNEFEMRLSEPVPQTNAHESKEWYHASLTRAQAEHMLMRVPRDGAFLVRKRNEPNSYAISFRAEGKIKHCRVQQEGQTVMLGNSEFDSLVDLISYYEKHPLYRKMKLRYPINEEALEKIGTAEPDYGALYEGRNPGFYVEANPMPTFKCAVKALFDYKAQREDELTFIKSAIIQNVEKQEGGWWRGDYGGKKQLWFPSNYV
Sequence of SLP-76 159-533 (Homo sapiens) (Q13094 159-533): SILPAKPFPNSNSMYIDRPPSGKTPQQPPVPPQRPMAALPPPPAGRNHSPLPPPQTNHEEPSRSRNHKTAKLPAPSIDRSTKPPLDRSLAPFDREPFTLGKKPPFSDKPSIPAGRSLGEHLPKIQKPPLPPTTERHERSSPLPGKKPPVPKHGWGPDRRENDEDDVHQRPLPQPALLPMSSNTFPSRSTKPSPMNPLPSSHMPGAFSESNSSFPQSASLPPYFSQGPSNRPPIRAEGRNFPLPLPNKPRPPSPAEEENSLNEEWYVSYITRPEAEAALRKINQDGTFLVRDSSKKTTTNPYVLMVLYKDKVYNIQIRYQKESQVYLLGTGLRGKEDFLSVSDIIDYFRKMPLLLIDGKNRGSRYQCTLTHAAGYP
Sequence of PLC-γ1 1-1219 (P19174 1-1219): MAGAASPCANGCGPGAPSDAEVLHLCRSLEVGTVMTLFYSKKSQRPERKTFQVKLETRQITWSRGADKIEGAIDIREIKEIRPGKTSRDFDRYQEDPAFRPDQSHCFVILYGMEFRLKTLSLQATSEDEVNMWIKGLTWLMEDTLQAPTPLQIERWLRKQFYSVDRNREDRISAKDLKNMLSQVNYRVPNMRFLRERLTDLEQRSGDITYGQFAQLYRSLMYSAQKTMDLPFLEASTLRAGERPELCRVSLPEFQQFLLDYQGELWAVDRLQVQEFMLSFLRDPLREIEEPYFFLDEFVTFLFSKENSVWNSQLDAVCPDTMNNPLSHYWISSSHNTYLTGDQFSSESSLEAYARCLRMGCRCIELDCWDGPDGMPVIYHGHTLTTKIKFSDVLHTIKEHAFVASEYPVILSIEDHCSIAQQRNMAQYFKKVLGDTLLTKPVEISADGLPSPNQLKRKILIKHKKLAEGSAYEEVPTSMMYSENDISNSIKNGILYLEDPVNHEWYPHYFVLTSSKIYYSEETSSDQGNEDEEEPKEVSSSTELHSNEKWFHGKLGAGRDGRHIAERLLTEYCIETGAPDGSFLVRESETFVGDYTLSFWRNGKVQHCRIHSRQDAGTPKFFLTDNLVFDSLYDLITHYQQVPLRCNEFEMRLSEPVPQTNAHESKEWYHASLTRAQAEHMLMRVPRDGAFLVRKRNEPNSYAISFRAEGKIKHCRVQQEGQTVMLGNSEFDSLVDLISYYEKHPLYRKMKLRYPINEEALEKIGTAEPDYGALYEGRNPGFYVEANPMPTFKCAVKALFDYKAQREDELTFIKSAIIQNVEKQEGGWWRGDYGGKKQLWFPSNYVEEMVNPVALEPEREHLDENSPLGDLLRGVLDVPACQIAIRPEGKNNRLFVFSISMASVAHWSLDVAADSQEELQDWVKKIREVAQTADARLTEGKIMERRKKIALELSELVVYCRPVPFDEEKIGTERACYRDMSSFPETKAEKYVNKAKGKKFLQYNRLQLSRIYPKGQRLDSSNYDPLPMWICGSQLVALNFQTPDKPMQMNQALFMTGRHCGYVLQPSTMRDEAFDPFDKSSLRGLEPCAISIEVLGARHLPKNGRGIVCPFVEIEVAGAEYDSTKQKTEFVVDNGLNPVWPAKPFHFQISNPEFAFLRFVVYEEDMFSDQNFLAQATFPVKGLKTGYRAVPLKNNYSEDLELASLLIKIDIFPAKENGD
Sequence of LAT (Homo sapiens) (O43561 161-180): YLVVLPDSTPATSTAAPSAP
Sequence of PLC-γ1 (P19174 2-1290): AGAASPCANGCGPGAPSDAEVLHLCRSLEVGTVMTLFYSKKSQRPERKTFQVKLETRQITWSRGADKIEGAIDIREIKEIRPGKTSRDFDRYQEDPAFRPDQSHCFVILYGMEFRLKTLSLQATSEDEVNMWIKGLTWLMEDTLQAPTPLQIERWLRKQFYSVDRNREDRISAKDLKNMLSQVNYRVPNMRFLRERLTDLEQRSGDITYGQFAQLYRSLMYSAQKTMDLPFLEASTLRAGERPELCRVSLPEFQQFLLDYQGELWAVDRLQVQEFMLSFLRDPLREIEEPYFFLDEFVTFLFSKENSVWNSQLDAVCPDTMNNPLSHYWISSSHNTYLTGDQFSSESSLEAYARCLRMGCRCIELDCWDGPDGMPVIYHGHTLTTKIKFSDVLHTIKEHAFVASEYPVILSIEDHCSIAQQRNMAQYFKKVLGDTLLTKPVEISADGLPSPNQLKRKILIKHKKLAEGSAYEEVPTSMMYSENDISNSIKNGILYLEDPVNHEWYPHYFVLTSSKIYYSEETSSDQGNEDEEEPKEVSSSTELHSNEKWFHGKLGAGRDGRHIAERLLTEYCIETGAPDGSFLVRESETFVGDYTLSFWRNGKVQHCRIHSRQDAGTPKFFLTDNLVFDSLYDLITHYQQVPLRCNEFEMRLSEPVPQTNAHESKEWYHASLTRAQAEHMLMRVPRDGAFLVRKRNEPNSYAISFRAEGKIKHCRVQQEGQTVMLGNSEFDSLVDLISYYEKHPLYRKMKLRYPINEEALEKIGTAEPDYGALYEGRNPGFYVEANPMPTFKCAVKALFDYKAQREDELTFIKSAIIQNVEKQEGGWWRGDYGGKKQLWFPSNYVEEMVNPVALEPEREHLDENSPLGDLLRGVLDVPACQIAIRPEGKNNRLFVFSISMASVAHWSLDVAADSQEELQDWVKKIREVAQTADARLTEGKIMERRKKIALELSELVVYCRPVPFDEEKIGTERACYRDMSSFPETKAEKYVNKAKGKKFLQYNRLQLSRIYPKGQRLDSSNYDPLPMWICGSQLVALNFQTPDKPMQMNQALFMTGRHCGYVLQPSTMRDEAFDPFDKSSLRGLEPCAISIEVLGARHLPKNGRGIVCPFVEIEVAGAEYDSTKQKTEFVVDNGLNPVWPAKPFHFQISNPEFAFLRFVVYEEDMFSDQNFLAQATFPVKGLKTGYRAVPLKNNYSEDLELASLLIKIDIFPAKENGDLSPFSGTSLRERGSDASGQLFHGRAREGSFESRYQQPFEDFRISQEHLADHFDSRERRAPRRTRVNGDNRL

## PLC-γ1 (from UniProt P19174)
[1]
  Kd: 3340 nM

## Gads 1-322 (from UniProt O89100)
LAT (Homo sapiens)
  Kd: 164 nM
[2]
  Kd: 213 nM
[1]
  Kd: 19 nM
[3]
  Kd: 3.6 nM

## Gads 1-322 (from UniProt O75791)
[1]
  Kd: 19 nM
[4]
  Kd: 164 nM

## PLC-γ1 550-846 (from UniProt P19174)
[5]
  Kd: 62 nM
[1]
  Kd: 3340 nM

## PLC-γ1 1-1219 (from UniProt P19174)
[2]
  Kd: 84 nM
